Target: hMutSα (hMSH2-hMSH6), wild type (human, UniProt P43246 1-934; P52701 1-1360)
Assay: pull-down

binding result: binds
Binder: ARKSAPATGGVKKPHRYRP (dimethyl-lysine at K36; biotin (position not given)) [biotin-labeled histone H3 peptide with di-methylated K36]

From PMC3641580 (Cell, 2013)
